According to patent US20250042994A1 (HAINAN SIMCERE ZAIMING PHARMACEUTICAL, published 2025):

T1: cynomolgus monkey CD19 on peripheral blood B cells (cynomolgus monkey (Macaca fascicularis), UniProt A0A2K5W8L9 20-557)
T1 construct: whole, on cells; also called cynomolgus monkey B cells
T1 sequence: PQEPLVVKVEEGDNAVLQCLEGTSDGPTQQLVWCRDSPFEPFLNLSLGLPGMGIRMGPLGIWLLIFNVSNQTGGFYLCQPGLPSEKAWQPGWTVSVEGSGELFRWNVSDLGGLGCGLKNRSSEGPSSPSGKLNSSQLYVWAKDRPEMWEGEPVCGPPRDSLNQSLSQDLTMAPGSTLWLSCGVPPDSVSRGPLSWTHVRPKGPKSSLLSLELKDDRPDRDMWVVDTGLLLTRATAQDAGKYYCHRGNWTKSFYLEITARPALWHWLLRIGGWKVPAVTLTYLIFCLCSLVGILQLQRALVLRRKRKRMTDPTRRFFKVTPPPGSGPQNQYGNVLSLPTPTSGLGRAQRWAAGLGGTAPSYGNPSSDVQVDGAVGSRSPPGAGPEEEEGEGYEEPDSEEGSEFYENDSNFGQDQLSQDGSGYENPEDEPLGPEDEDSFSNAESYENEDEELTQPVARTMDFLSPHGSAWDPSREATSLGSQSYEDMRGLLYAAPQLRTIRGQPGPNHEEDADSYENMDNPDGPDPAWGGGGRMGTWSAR

T2: human CD19 on Raji cells (human, UniProt P15391 20-556)
T2 construct: whole, on cells
T2 sequence (looked up): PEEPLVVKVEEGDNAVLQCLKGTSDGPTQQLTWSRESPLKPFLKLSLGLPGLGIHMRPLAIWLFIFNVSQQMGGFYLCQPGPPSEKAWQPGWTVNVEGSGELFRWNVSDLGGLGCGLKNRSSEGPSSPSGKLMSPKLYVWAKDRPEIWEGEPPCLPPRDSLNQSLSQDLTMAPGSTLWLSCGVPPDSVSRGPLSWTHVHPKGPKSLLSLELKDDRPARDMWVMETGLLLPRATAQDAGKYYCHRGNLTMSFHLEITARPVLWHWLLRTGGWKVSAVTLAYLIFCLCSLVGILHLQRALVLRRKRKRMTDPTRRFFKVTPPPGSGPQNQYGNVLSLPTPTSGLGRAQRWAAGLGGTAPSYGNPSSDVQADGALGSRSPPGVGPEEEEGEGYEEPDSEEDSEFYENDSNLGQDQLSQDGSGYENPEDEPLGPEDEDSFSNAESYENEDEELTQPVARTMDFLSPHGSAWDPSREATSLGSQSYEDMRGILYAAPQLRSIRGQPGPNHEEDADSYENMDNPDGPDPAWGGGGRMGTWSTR

T3: human CD19 on CHO-K1-human CD19 cells (human, UniProt P15391 20-556)
T3 construct: whole, on cells; also called CHO-K1-human CD19-2C8
T3 sequence (looked up): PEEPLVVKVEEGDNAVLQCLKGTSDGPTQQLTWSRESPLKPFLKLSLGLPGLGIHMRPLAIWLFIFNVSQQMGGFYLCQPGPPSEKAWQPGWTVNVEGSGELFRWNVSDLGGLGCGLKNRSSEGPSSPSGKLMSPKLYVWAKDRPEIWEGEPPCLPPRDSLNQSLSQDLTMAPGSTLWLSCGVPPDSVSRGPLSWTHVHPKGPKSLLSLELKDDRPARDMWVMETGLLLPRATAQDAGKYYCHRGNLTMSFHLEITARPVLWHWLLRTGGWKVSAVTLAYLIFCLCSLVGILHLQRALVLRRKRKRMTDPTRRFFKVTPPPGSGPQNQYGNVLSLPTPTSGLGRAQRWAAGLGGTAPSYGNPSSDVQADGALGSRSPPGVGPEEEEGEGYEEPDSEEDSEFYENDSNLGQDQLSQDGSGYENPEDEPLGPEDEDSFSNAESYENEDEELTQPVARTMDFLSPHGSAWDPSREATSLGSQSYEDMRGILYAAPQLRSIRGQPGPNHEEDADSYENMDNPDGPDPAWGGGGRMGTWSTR


Experiments:
[1] = target: T1, cynomolgus monkey CD19 on peripheral …; experiment: FACS, cynomolgus PBMC, CD20+ B cells
Description: The monkey peripheral blood mononuclear cells were extracted from fresh cynomolgus monkey peripheral blood (purchased from Shanghai Medicilon Inc.) according to the instructions of Ficoll-Paque Plus (purchased from GE Healthcae, catalog number: 171440-02). After the cell suspension was centrifuged, the cells were resuspended in PBS containing 1% BSA, and then the cells were counted. […] The mixture was incubated for 1 h at room temperature. After washing the cells three times, APC-labeled secondary antibody anti-human IgG Fc (catalog number: 409306, purchased from Biolegend) was added. After incubation at room temperature in the dark for 30 minutes, the cells were washed 5 times, gently resuspended with PBS containing 1% BSA, and detected and analyzed by FACS (FACS Canto™, purchased from BD Company), in which CD20 was used as a marker of B cells to gate the CD20-positive B cell population, the proportion of the chimeric antibody-labeled positive cells was analyzed, and the proportion of the chimeric antibody positive cell population to B cell population was calculated after treatments with the chimeric antibodies at the concentrations of 100 nM, 10 nM and 1 nM, respectively.

human CD19 on Raji cells = target: T2, human CD19 on Raji cells; experiment: FACS on Raji cells
From the text: (§1) The desired cells were scale-up cultured in a T-75 cell culture flask to the logarithmic growth phase. For the adherent cell CHO-K1, the medium was aspirated, the cells were washed 2 times with a PBS buffer, and then digested with trypsin. After the digestion was terminated, the cells were washed 2 times with a PBS buffer; and for suspension cell Raji, the supernatant of the medium was discarded by directly centrifugation, and the cell pellet was washed 2 times with PBS. After counting the cells in the previous step, the cell pellet was resuspended with [PBS+2% (w/w) BSA] blocking solution to 2×10⁶ cells/ml, and added to a 96-well FACS reaction plate at 50 μl/well, and then the sample to be tested was added at 50 μl/well, and incubated on ice for 2 h. The obtained mixture was centrifuged and washed 3 times with a PBS buffer. […] The obtained mixture was centrifuged and washed 5 times with a PBS buffer, and FACS (FACS Canto™, purchased from BD Company) was used for detection and result analysis. Data analysis was performed by software (FlowJo) to obtain the mean fluorescence intensity (MFI) of the cells. And then software (GraphPad Prism8) was used for analysis, data fitting, and EC50 value calculation. […] The same method was used to detect the binding of the chimeric antibodies to endogenous CD19-negative cells, MoLT4 cells (purchased from ATCC, CRL-1582), and CHO-K1 cells.

[2] = target: T4, monkey CD19 on HEK293T-monkey CD19 cells (monkey); experiment: FACS on HEK293T-monkey CD19 cells
T4 construct: whole, on cells
Description: as §1, with “After” for “The desired cells were scale-up cultured in a T-75 cell culture flask to the logarithmic growth phase. For the adherent cell CHO-K1, the medium was aspirated, the cells were washed 2 times with a PBS buffer, and then digested with trypsin. After”
HEK293T-monkey CD19 cells were subjected to FACS detection and data analysis according to the method in example 5.2. […] The same method was used to detect binding of the chimeric antibodies to HEK293T cells.

[3] = target: T3, human CD19 on CHO-K1-human CD19 cells; experiment: FACS on CHO-K1-human CD19 cells
From the text: as §1

Row | Binder | Proportion of chimeric antibody positive cells to B cells (%) at 1 nM [1] | Proportion of chimeric antibody positive cells to B cells (%) at 10 nM [1] | Proportion of chimeric antibody positive cells to B cells (%) at 100 nM [1] | EC50 (human CD19 on Raji cells) | Maximum mean fluorescence intensity (human CD19 on Raji cells) | EC50 [2] | Maximum mean fluorescence intensity [2] | EC50 [3] | Maximum mean fluorescence intensity [3]
1 | F2.15.26 (antibody, human IgG1, V domains shown, human-murine chimeric antibody, human IgG1) VH: QVQLKESGPGLVAPSQSLSITCTVSGFSLTDYGVSWIRQSPGKGLEWLGVIWGSGDTYYNSVLESRLSINKDNSKNQVFLKMNSLQTDDAAMYFCAKHSYYGGSFAMDYWGQGTSVTVSS VL: DIQMTQTTSSLSASLGDRVTISCRASQDISNYLNWYQQKPDGTVKLLIYYTSRLHSGVPSRFSGSGSGTDYSLTISNLEQEDIATYFCQQGKTLPWTFGGGTKLEIK | 2% | 6% | 22% | 0.53 nM | 29200 | 16.7 nM | 28700 | 0.71 nM | 60400
2 | F6.12.12 (antibody, human IgG1, V domains shown, human-murine chimeric antibody, human IgG1) VH: DVQLQESGPGLVKPSQSLSLTCSVTGYSITSGYYWIWIRQFPGNKLEWMGYISYDASNKYKPSLKNRISITRDTSKNQFFLKLNSVTAEDTATYFCAREDLRGYFDVWGTGTSVTVSS VL: DIVLTQSPASLAVSLGRRATISCRASQSVSTSGFSYMHWYQQKPGQPPNLLIKYASILQSGVPARFSGSGSGTDFILNIHPVEDVDTATYYCQHSWGIPFTFGSGTKLEIK | 91% | 97% | 97% | 5.25 nM | 43300 | 0.94 nM | 99100 | 0.84 nM | 63300
3 | F5.8.6 (antibody, human IgG1, V domains shown, human-murine chimeric antibody, human IgG1) VH: QVQLHQPGAELVMPGASVTLSCKASGYTFTSYWMHWVKQRPGQGLEWIGEIDPSDSYTTYDQKFKGKATLTVDKFSSTAYMQFSSLTSEDSAVYYCARLTGNHLDYWGQGTTLTVSS VL: DIVMTQSHKFMSSSVGDRVSITCKASQDVSPAVAWYQQKPGQSPKLLIYSTSYRNTGVPDRFTGSGSGTDFTFTISSVQAEDLAVYYCQQHYSIPLTFGAGTKLELK | 5% | 13% | 18% | 1.26 nM | 27300 | 5.7 nM | 43800 | 3.5 nM | 53600
4 | F1-mab003 (antibody, human IgG1, V domains shown, human-murine chimeric antibody, human IgG1) VH: EVQLQQSGPELVKPGASVKMSCKASGYTFTDYVMHWVRQTPGQGLEWIGYFNPYNDGTNYNEKFKVKATLTSDKSSTTAYMELSSLTSEDSAVYYCARGVYYYGRDFDYWGQGTTLTVSS VL: DVVLTQTPLSLPVSLGDQASISCRSSQSLENSNGNSYLNWYLQKPGQSPQLLIYRVSNRFSGVLDRFSGSGSGTDFTLKISRVEAEDLGVYFCLQITHVPWTFGGGTKLEIK | 15% | 32% | 59% | 0.57 nM | 33100 | 1.76 nM | 75000 | 0.69 nM | 66900
5 | F5.10.6 (antibody, human IgG1, V domains shown, human-murine chimeric antibody, human IgG1) VH: DVQLQESGPGLVKPSQSLSLTCSVTDYSITSGYYWTWIRQFPGNKLEWMGYISYDGSTNYNPSLKNRFSITRDTSKNQFFLKLNSVIIEDTATYYCARDRMSTTWYFDVWGTGTTVTVSS VL: DIVLTQSPASLAVSLGQRATISCRASESVDNYGISFMHWYQQKPGQPPKLLIYRASKTESGIPARFSGSGSRTDFTLTINPVETDDVATYYCQQSNKYPRTFGGGTKVEIK | 61% | 97% | 99% | 1.34 nM | 22100 | 4.98 nM | 99900 | 2.6 nM | 47700
6 | F4.276.12 (antibody, human IgG1, V domains shown, human-murine chimeric antibody, human IgG1) VH: EIQLQQSGPELVKPGASVKVSCKASGYAFSAYNMYWVKQSHGKSLEWIGYIDPYNGGTNYNQKFKGKATLTVDKSSSTAYMHLNSLTSEDSAVYYCARDGYEVTYWGQGTLVTVSA VL: QIVLTQSPALMSASLGEEITLTCSASSSVTYMHWSQQKSGTSPRLLIYSTSNLASGVPSRFSGSGSGTFYSLTISSVEAEDAADYYCHQWSSYPWTFGGGTKLEIK | 2% | 1% | 2% | 0.78 nM | 23500 | – | 597 | 1.05 nM | 50200
